Reference: publication PMC4348373, “YY1 suppresses FEN1 over-expression and drug resistance in breast cancer”

B1: MUT FEN1 (dsDNA)
DNA 1: AACGCTCTCAGCAATTTGCCCCGCGAAG
DNA 2: CTTCGCGGGGCAAATTGCTGAGAGCGTT
B2: WT FEN1 (dsDNA)
DNA 1: AACGCTCTCACCATTTTGCCCCGCGAAG
DNA 2: CTTCGCGGGGCAAAATGGTGAGAGCGTT

Assays:
[1] = target: T1, YY1 (UniProt P25490 1-414); assay: EMSA; Pull-down: 25 mM Tris, 150 mM NaCl, pH 7.2, room temperature, 30 min; EMSA: LightShift chemiluminescent kit, 5% native PAGE, buffer not stated; settings: protein: recombinant; tags: N-terminal 3xFlag; label: 5'-biotin
[2] = target: T1, YY1; assay: EMSA; complex diminished by anti-YY1, not by IgG (Fig 2C); Pull-down: 25 mM Tris, 150 mM NaCl, pH 7.2, room temperature, 30 min; EMSA: LightShift chemiluminescent kit, 5% native PAGE, buffer not stated; settings: protein: recombinant; tags: N-terminal 3xFlag; label: 5'-biotin

T1 sequence (P25490 whole entry): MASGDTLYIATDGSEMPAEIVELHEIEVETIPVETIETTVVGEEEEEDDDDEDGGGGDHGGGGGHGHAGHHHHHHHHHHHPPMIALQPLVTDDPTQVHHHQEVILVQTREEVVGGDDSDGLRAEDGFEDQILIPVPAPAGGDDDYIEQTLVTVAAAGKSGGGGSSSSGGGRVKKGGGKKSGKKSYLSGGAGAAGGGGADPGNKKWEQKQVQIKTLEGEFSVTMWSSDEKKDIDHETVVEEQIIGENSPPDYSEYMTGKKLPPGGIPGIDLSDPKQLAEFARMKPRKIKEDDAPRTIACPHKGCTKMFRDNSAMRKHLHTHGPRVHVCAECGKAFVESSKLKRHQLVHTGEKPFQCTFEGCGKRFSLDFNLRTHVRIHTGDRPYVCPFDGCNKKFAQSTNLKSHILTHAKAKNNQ

Binder | binding result [1] | binding result [2]
B1 | no binding | –
B2 | – | binds
